According to PMC11046469, “Leveraging a Phage-Encoded Noncanonical Amino Acid: A Novel Pathway to Potent and Selective Epigenetic Reader Protein Inhibitors” (ACS Central Science, 2024):

biological target: T1, ENL YEATS domain (AviSUMO-ENL YEATS) (Homo sapiens, UniProt Q03111); experiment: Phage panning of BuK-containing 7-mer library against AviSUMO-ENL YEATS with Illumina NGS abundance; conditions: sheet ENLR3: round 3 of panning against ENL YEATS; TAG = amber codon (BuK); 7-mer library positions V1-V7
T1 construct: encoding ENL YEATS (aa 1−148) was cloned in pET28a-; made in house; host or cells: E. coli BL21(DE3pLysS), co-expressed with BirA (pBirAcm)
T1 sequence (Q03111 1-148): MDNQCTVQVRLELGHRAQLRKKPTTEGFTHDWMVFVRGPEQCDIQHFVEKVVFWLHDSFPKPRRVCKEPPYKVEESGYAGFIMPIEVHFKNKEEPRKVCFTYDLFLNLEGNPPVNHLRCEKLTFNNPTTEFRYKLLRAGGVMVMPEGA
Source text: We utilized a previously established amber-obligate 7-mer phage display library to develop a phage display library enriched with BuK-containing 7-mer peptides. For detailed characterizations, including analysis of amber codon percentages, NNK trinucleotide analysis, and amino acid distribution at each position within the library, please refer to the work of Tharp et al.[10] Furthermore, the comprehensive raw NGS data for the amber-obligate 7-mer phage library can be found in the NCBI’s Sequence Read Archive, under the accession ID PRJNA606283. To produce the BuK-containing 7-mer phage library, the phages were produced in the presence of 5 mM BuK using TOP10 cells harboring the following three plasmids: (1) pADL-gIII, which contains the 7-mer amber-obligate peptide-coding DNA library positioned at the N-terminus of M13 pIII gene; (2) pCDF-BuKRS, which encodes BuKRS and its cognate tRNA^Pyl for the genetic incorporation of BuK at amber codons in the 7-mer library; and (3) M13KO7TAA, a helper phage plasmid engineered to have a TAA mutation at pIII so that its lack of a functional pIII allows an efficient multivalent display of the 7-mer library. The ENL YEATS domain containing an N-terminal AviSUMO-Tag was recombinantly expressed in E. coli together with BirA, a biotin ligase, for site-specific biotinylation at the AviTag. The biotinylated AviSUMO-ENL YEATS was immobilized on streptavidin-coated magnetic beads for panning with the BuK-containing phages. […] Phage libraries collected from the first and third rounds of selection were sequenced using Illumina next generation sequencing (NGS) and all sequenced data are available through the NCBI SRA database (Project PRJNA1041845). To prevent possible sequencing errors from affecting conclusions, sequences were filtered using previously published paired-end processing,[10] where any sequences containing more than one mismatch in the nonlibrary region or any mismatch in the library region were discarded. The NGS data provided DNA sequences encompassing both the library and nonlibrary regions. In our analysis, we included data from the nonlibrary region as a stringent quality control measure to filter out low-quality data. For our analysis, we utilized 51 nucleotides from the NGS output, with 21 nucleotides encoding the library region and an additional 30 nucleotides for the nonlibrary region. […] Among all the sequences, only 85 of them contained more than 100 copies (blue area), while the remaining sequences all had low abundances (<10^2 copies, dark and light gray areas), which constituted 85.2% of the first round population. After three panning rounds, the selection converged to two highly enriched sequences: YDVYCYX (ENL-S1) and WWIIEXG (ENL-S2, X denotes BuK). Out of 551 different unique sequences collected from the third round, ENL-S1 and ENL-S2 represented 85% of the entire library (Figure 2A and Figures S6–S8). Both peptide sequences corresponded to their own unique DNA sequence, rather than there being varying codons encoding the same amino acids (Figure S7). […] Two motifs were found in the majority of sequences with high abundance (greater than 0.1%) (Figure S6). A Y(C/L)Y pattern was identified in the residues adjacent to BuK in four of the eight top sequences. Also, an H(L/Y)(T/V)LFXG (X denotes BuK) motif was observed, albeit at lower abundances, in two of the top sequences. In the initial round of selection, we observed that only a small percentage of phages were eluted, which aligns with typical outcomes in phage selection experiments since only a low copy number of phages can bind to the target.[10],[45] With each successive round of selection, we noted a gradual increase in the percentage of phages eluted. This incremental, rather than sharp, increase was attributed to the intensification of selection pressures, such as the application of more stringent washing protocols. We aimed for the incremental increase to retain potent clones with low copy numbers from the previous selection cycle. […]

| Substance | n (number of NGS reads of the unique amino acid sequence) | percent (share of sequence reads) [%] |
| --- | --- | --- |
| LFIALPTAG | 1 | 0.0009106 |
| LLAFLWL | 1 | 0.0009106 |
| LLIIETAGG | 1 | 0.0009106 |
| LLWTAGLAS | 1 | 0.0009106 |
| LNAEFTAGA | 1 | 0.0009106 |
| LTAGMPRSF | 1 | 0.0009106 |
| LTAGSSASG | 1 | 0.0009106 |
| LTAGTVLDP | 1 | 0.0009106 |
| LTCYCYTAG | 39 | 0.03551 |
| LWIFTPTAG | 4 | 0.003642 |
| LWIIETAGG | 26 | 0.02368 |
| LYGSTAGDC | 1 | 0.0009106 |
| MFTAGITDN | 1 | 0.0009106 |
| MTAGGLRHS | 1 | 0.0009106 |
| NAIYCYTAG | 1 | 0.0009106 |
| NCPTAGFNL | 1 | 0.0009106 |
| QCCPRTAGD | 10 | 0.009106 |
| QCGLRTAGD | 4 | 0.003642 |
| QCGPLTAGD | 10 | 0.009106 |
| QCGPQTAGD | 2 | 0.001821 |

| Substance | n (number of NGS reads of the unique amino acid sequence) | percent (share of sequence reads) [%] |
| --- | --- | --- |
| QCGPRTAGD | 9049 | 8.24 |
| QCGPRTAGN | 3 | 0.002732 |
| QCGPRTAGY | 10 | 0.009106 |
| QCGPRYD | 11 | 0.01002 |
| QCGPWTAGD | 4 | 0.003642 |
| QCGQRTAGD | 10 | 0.009106 |
| QCGSRTAGD | 3 | 0.002732 |
| QCGTRTAGD | 13 | 0.01184 |
| QCVPRTAGD | 5 | 0.004553 |
| QFGPRTAGD | 6 | 0.005464 |
| QRGPRTAGD | 2 | 0.001821 |
| QYGPRTAGD | 2 | 0.001821 |
| RTVYCYTAG | 142 | 0.1293 |
| RWIIETAGG | 7 | 0.006374 |
| SCPPRTAGD | 10 | 0.009106 |
| SCVVFTAGI | 2 | 0.001821 |
| SLMMCQTAG | 2 | 0.001821 |
| SMHACTAGT | 2 | 0.001821 |
| SQCTAGECA | 2 | 0.001821 |

same assay, conditions: sheet ENLR3: round 3 of selection against ENL YEATS; TAG = amber codon (BuK)

| Substance | n (number of NGS reads of the 7-mer sequence V1-V7) | percent (share of NGS reads of the 7-mer sequence V1-V7) [%] |
| --- | --- | --- |
| NLTLFTAGG | 1 | 0.0009106 |
| NTAGNIGLY | 1 | 0.0009106 |
| NTITAGISL | 1 | 0.0009106 |
| NYVLFTAGG | 1 | 0.0009106 |
| QCAPRTAGD | 1 | 0.0009106 |
| QCDPRTAGD | 1 | 0.0009106 |
| QCGPPTAGD | 1 | 0.0009106 |
| QCGPRQD | 1 | 0.0009106 |
| QCGPRTAGE | 1 | 0.0009106 |
| QCGPRTAGG | 1 | 0.0009106 |
| QCGPRTAGV | 1 | 0.0009106 |
| QCGPRWD | 1 | 0.0009106 |
| QCGPWTAGG | 1 | 0.0009106 |
| QCSPRTAGD | 1 | 0.0009106 |
| QTAGERNAC | 1 | 0.0009106 |
| QWGPRTAGD | 1 | 0.0009106 |
| RCGPRTAGD | 1 | 0.0009106 |
| RLTLFTAGG | 1 | 0.0009106 |
| RTAGTESQL | 1 | 0.0009106 |
| RTVYCHTAG | 1 | 0.0009106 |
| RWVAGPTAG | 1 | 0.0009106 |
| SAVVATAGG | 1 | 0.0009106 |
| SGVGFTAGS | 1 | 0.0009106 |
| SLERTAGGF | 1 | 0.0009106 |
| SLYITFTAG | 1 | 0.0009106 |
| SMMTAGSST | 1 | 0.0009106 |
| SSGTAGKCV | 1 | 0.0009106 |
| STAGTEIYC | 1 | 0.0009106 |
